To fix the notation:
B1: Ab19: monoclonal antibody binding proTGFβ1 complexes; VH SEQ ID NO: 234, VL SEQ ID NO: 15 (antibody, V domains shown)
VH: QVQLVESGGGVVQPGRSLRLSCAASGFTFSSFAMTWVRQAPGKGLEWVSAISGSGAATYFADSVKGRFTISRDNSKNTLYLQMNSLRAEDTAVYYCARVSSGHWDFDEWGQGTLVTVSS
VL: DIQLTQSPSSLSASVGDRVTITCRASQSISSYLNWYQQKPGKAPKLLIYAASNLQSGVPSRFSGSGSGTDFTLTISSLQPEDFATYYCQQTYTVPLTFGGGTKVEIK
B2: Ab16: monoclonal antibody binding proTGFβ1 complexes; VH SEQ ID NO: 228, VL SEQ ID NO: 15 (antibody, V domains shown)
VH: EVQLLESGGGLVQPGGSLRLSCAASGFTFSNYAMSWVRQAPGKGLEWVSAISGSGFTTYYADSVKGRFTISRDNSKNTLYLQMNSLRAEDTAVYYCARVSSGHWDFDYWGQGTLVTVSS
VL: B1 VL
B3: Ab14: monoclonal antibody binding proTGFβ1 complexes; VH SEQ ID NO: 224, VL SEQ ID NO: 223 (antibody, V domains shown)
VH: B2 VH with N31A, S35T, S54T, F56G, T57S
VL: B1 VL with L4M, N53S, T91V, T93D, V94P
B4: Ab12: monoclonal antibody binding proTGFβ1 complexes; VH SEQ ID NO: 212, VL SEQ ID NO: 15 (antibody, V domains shown)
VH: B2 VH with E1Q, L5V, L11V, G16R, N31D, S35V
VL: B1 VL
B5: Ab15: monoclonal antibody binding proTGFβ1 complexes; VH SEQ ID NO: 226, VL SEQ ID NO: 15 (antibody, V domains shown)
VH: B2 VH with L5V, L11V, G16R, N31D, S35V
VL: B1 VL
B6: Ab13: monoclonal antibody binding proTGFβ1 complexes; VH SEQ ID NO: 222, VL SEQ ID NO: 223 (antibody, V domains shown)
VH: B2 VH with S30A, N31D, S35T, G53S, S54F, G55A, F56S, T57A, T58I
VL: B1 VL with L4M, N53S, T91V, T93D, V94P
B7: Ab18: monoclonal antibody binding proTGFβ1 complexes; VH SEQ ID NO: 232, VL SEQ ID NO: 15 (antibody, V domains shown)
VH: B1 VH with S31D, F32Y, T35V, R98T, E108Y
VL: B1 VL
B8: Ab17: monoclonal antibody binding proTGFβ1 complexes; VH SEQ ID NO: 230, VL SEQ ID NO: 15 (antibody, V domains shown)
VH: B1 VH with Q1E, V5L, R16G, E108Y
VL: B1 VL
B9: Ab11: monoclonal antibody binding proTGFβ1 complexes; VH SEQ ID NO: 216, VL SEQ ID NO: 15 (antibody, V domains shown)
VH: B2 VH with S30R, A50S, F56G, T57A
VL: B1 VL
B10: Ab20: monoclonal antibody binding proTGFβ1 complexes; VH SEQ ID NO: 236, VL SEQ ID NO: 15 (antibody, V domains shown)
VH: B2 VH with N31A, S35T, F56G, T57V, F106Y
VL: B1 VL

Substitutions are numbered along the chain they refer to. Where “and” joins values, the source holds several entries; their conditions need not be identical. Equal values may be shown once.

The first experiment has as its system Matrix-associated proTGFβ1 vs Cell-associated proTGFβ1. Description: Octet binding, matrix vs cell bias (G/D). Further details: species or system human. The settings on record: ratio of cell average KD to ECM average KD. An excerpt:
(§1) Column (A) of the table provides monoclonal antibodies with discrete amino acid sequences. […] Columns (B), (C), (E) and (F) provide affinities of each of the listed antibodies, measured in KD, towards the antigen complex as indicated, respectively. […] Average KD values calculated from (B) and (C) are shown in the corresponding column (D), which collectively represents affinities of the antibodies to ECM- or matrix-associated proTGFβ1 complexes. Similarly, Average KD values calculated from (E) and (F) are shown in the corresponding column (G), which collectively represents affinities of the antibodies to cell-surface or cell-associated proTGF complexes. Finally, relative ratios between the average KD values from columns (D) and (G) are expressed as fold bias” in column (H). Thus, the greater the numerical of column (H) is, the greater bias exists for the particular antibody, when comparing binding preferences of the antibody for matrix-associated complexes to cell-surface complexes. This is one way of quantitatively representing and comparing inherent bias of antibodies to their target complexes. Such analyses may be useful in guiding the selection process for a candidate antibody for particular therapeutic use.
For B1, the “(H) G/D (fold bias)” value is 34.47 fold.

Turning to B2, the “(H) G/D (fold bias)” value turned out to be 15.307 fold.

With B3, the “(H) G/D (fold bias)” value turned out to be 17.36 fold.

Regarding B4, the “(H) G/D (fold bias)” value is given as 22.897 fold.

For B5, the “(H) G/D (fold bias)” value was 24.25 fold.

With B6, the “(H) G/D (fold bias)” value came out at 21.71 fold.

On to B7, for which the “(H) G/D (fold bias)” value was 22.00 fold.

In the case of B8, the “(H) G/D (fold bias)” value came to 24.288 fold.

A further experiment has the same test system. In words: MSD-SET binding, matrix vs cell bias (G/D). Also on record: species or system human. The settings on record: ratio of cell average KD to ECM average KD. An excerpt:
(§2) Column (A) of the table provides monoclonal antibodies with discrete amino acid sequences. […] Columns (B), (C), (E) and (F) provide affinities of each of the listed antibodies, measured in KD, towards the antigen complex as indicated, respectively. […] Similarly, Average KD values calculated from (E) and (F) are shown in the corresponding column (G), which collectively represents affinities of the antibodies to cell-surface or cell-associated proTGF complexes. Finally, relative ratios between the average KD values from columns (D) and (G) are expressed as fold bias” in column (H). Thus, the greater the numerical of column (H) is, the greater bias exists for the particular antibody, when comparing binding preferences of the antibody for matrix-associated complexes to cell-surface complexes. This is one way of quantitatively representing and comparing inherent bias of antibodies to their target complexes. Such analyses may be useful in guiding the selection process for a candidate antibody for particular therapeutic use. Select antibodies of the present disclosure, as measured by MSD-SET, show context-bias (i.e., greater than five-fold bias) or unbias (i.e., less than 5-fold bias) toward matrix-associated complexes over cell-associated complexes. […] Without being bound by a particular theory, the differences in the kinetics of the assays and/or differences in the nature of recombinant proteins may account for the noticeable differences seen in Ab19 binding to hGARP complexes observed in the above Octet assay (see Table 6) compared to the below MSD-SET assay (see Table 7 below). For example, the Octet assay measures kinetic on and off rates, while the MSD-SET assay measures binding at equilibrium. In addition, the recombinant antibodies used in the Octet assay were expressed as IgG1 antibodies in yeast, while the antibodies used in the MSD assay were expressed as IgG4 antibodies in mammalian cells.
B1: the “(H) G/D (fold bias)” value is 1.675 fold and 1.68 fold.

B9: the “(H) G/D (fold bias)” value was 3.87 fold.

In the case of B10, the “(H) G/D (fold bias)” value is 6.75 fold.

Turning to B4, the “(H) G/D (fold bias)” value is recorded as 3.40 fold.

Another experiment has as its system Cell-associated proTGFβ1. In words: MSD-SET binding, cell average of hGARP and hLRRC33 complexes. Also on record: species or system human. The conditions noted are these: average KD of (E) and (F), read-out: (G) Cell AVRG.
Excerpt: as §2
Regarding B1, the Kd turned out to be 4.75 nM.

Regarding B9, the Kd stood at 4.65 nM.

Regarding B4, the Kd amounted to 2.45 nM.

Another experiment relates to Cell-associated proTGFβ1. In words: Octet binding, cell average of hGARP and hLRRC33 complexes. Also on record: species or system human. The conditions noted are these: average KD of (E) and (F), read-out: (G) Cell AVRG.
Excerpt: as §1
(In BLI a coated tip is dipped into the sample, and binding shifts an interference pattern.)
Regarding B1, the Kd was 5.95 nM.

In the case of B2, the Kd is 2.4 nM.

As for B9, the Kd came to 0.699 nM.

Turning to B10, the Kd stood at 0.715 nM.

As to B3, the Kd was 5.92 nM.

Take B4: the Kd was 3.89 nM.

With B5, the Kd was 3.86 nM.

Consider B6, for which the Kd came to 5.7 nM.

Turning to B7, the Kd turned out to be 6.26 nM.

Consider B8, for which the Kd came to 4.64 nM.

Another experiment addresses Matrix-associated proTGFβ1. In words: Octet binding, ECM average of hLTBP1 and hLTBP3 complexes. Also on record: species or system human. The settings on record: average KD of (B) and (C), read-out: (D) ECM AVRG.
Excerpt: as §1
Take B1: the Kd was 0.172 nM.

On to B2, for which the Kd worked out at 0.157 nM.

B9: the Kd amounted to 0.161 nM.

As to B10, the Kd worked out at 0.162 nM.

Take B3: the Kd was 0.341 nM.

On to B4, for which the Kd stood at 0.17 nM.

Take B5: the Kd was 0.159 nM.

Consider B6, for which the Kd worked out at 0.263 nM.

Turning to B7, the Kd turned out to be 0.284 nM.

B8: the Kd was determined as 0.191 nM.

A further experiment has as its target Matrix-associated proTGFβ1. Description: MSD-SET binding, ECM average of hLTBP1 and hLTBP3 complexes. Further details: species or system human. The settings on record: average KD of (B) and (C), read-out: (D) ECM AVRG.
Excerpt: as §2
Consider B1, for which the Kd amounted to 2.83 nM.

For B10, the Kd came to 0.2 nM.

Turning to B4, the Kd was determined as 0.72 nM.

The record behind these values is patent US20210340238A1, “TGFß1 INHIBITORS AND USE THEREOF” (Scholar Rock, Inc., priority 2018, published 2021).
